Experimental data reported in paper PMC9750158 (Science Advances, 2022).

Legend:
[1] = target: ∆WRC230 with Sra1 W845A/Y849A (∆M#3) (human, UniProt Q7L576;Q9Y2A7;Q92558;Q9NYB9;Q8WUW1, W845A | Y849A); experiment: pull-down
Sra1 = Sra1 (human, UniProt Q7L576 1-1253); experiment: reconstitution and co-purification of subcomplexes and pentamer
WAVE1(1-230) = target: T1, WAVE1(1-230) (human, UniProt Q92558 1-230); experiment: as above
T1 sequence: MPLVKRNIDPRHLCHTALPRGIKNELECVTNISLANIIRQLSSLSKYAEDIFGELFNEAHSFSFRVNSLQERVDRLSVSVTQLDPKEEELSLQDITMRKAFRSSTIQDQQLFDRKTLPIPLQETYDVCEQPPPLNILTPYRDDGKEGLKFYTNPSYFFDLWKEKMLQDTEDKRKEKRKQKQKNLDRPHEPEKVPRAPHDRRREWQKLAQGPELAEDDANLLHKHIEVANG

Sra1/Nap1 dimer = Sra1/Nap1 dimer (human, UniProt Q7L576;Q9Y2A7); experiment: as above
Chain of Sra1/Nap1 dimer (Q7L576 whole entry, one chain of several): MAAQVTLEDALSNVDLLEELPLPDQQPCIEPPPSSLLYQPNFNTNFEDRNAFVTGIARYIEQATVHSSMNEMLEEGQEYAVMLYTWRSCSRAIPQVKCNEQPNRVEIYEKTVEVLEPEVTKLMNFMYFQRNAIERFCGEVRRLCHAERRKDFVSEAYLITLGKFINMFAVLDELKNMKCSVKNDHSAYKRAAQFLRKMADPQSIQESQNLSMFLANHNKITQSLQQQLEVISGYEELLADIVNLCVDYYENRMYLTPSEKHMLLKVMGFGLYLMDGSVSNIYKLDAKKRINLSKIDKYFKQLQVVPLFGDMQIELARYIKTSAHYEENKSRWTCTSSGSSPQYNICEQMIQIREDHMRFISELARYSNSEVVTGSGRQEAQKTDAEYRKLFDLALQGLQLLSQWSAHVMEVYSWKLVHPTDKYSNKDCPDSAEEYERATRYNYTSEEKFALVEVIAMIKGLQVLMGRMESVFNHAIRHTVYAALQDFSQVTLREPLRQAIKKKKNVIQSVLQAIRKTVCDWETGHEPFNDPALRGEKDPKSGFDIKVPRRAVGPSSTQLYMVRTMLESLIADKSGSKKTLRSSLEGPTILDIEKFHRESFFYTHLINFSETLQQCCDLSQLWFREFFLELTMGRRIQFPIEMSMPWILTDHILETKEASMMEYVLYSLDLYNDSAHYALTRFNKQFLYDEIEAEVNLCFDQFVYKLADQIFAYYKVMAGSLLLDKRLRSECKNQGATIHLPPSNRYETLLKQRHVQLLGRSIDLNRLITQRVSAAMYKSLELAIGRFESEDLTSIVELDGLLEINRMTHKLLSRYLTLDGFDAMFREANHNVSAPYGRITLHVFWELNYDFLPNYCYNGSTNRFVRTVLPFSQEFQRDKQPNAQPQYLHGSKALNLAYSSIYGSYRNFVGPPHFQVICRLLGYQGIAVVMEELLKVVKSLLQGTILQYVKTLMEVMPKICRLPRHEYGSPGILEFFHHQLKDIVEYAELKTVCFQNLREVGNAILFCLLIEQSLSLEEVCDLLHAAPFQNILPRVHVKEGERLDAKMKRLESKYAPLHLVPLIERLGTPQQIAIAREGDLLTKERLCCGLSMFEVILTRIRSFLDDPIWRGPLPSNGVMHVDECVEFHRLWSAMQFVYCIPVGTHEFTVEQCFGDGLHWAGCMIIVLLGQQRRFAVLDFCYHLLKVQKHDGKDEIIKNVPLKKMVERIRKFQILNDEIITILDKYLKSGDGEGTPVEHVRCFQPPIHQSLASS

Chain of Sra1 (Q7L576 whole entry): as the sequence (Q7L576 whole entry, one chain of several) above
Chain of ∆WRC230 with Sra1 W845A/Y849A (∆M#3) (Q7L576 whole entry W845A/Y849A, one chain of several): as the sequence (Q7L576 whole entry, one chain of several) above, with W845A, Y849A counted along it

B1: GST-Arf1 (Arf1^∆N17) (natural protein)
chain: not shown
- binding result [1]: binds

B2: Nap1 (natural protein)
chain: MSRSVLQPSQQKLAEKLTILNDRGVGMLTRLYNIKKACGDPKAKPSYLIDKNLESAVKFIVRKFPAVETRNNNQQLAQLQKEKSEILKNLALYYFTFVDVMEFKDHVCELLNTIDVCQVFFDITVNFDLTKNYLDLIITYTTLMILLSRIEERKAIIGLYNYAHEMTHGASDREYPRLGQMIVDYENPLKKMMEEFVPHSKSLSDALISLQMVYPRRNLSADQWRNAQLLSLISAPSTMLNPAQSDTMPCEYLSLDAMEKWIIFGFILCHGILNTDATALNLWKLALQSSSCLSLFRDEVFHIHKAAEDLFVNIRGYNKRINDIRECKEAAVSHAGSMHRERRKFLRSALKELATVLSDQPGLLGPKALFVFMALSFARDEIIWLLRHADNMPKKSADDFIDKHIAELIFYMEELRAHVRKYGPVMQRYYVQYLSGFDAVVLNELVQNLSVCPEDESIIMSSFVNTMTSLSVKQVEDGEVFDFRGMRLDWFRLQAYTSVSKASLGLADHRELGKMMNTIIFHTKMVDSLVEMLVETSDLSIFCFYSRAFEKMFQQCLELPSQSRYSIAFPLLCTHFMSCTHELCPEERHHIGDRSLSLCNMFLDEMAKQARNLITDICTEQCTLSDQLLPKHCAKTISQAVNKKSKKQTGKKGEPEREKPGVESMRKNRLVVTNLDKLHTALSELCFSINYVPNMVVWEHTFTPREYLTSHLEIRFTKSIVGMTMYNQATQEIAKPSELLTSVRAYMTVLQSIENYVQIDITRVFNNVLLQQTQHLDSHGEPTITSLYTNWYLETLLRQVSNGHIAYFPAMKAFVNLPTENELTFNAEEYSDISEMRSLSELLGPYGMKFLSESLMWHISSQVAELKKLVVENVDVLTQMRTSFDKPDQMAALFKRLSSVDSVLKRMTIIGVILSFRSLAQEALRDVLSYHIPFLVSSIEDFKDHIPRETDMKVAMNVYELSSAAGLPCEIDPALVVALSSQKSENISPEEEYKIACLLMVFVAVSLPTLASNVMSQYSPAIEGHCNNIHCLAKAINQIAAALFTIHKGSIEDRLKEFLALASSSLLKIGQETDKTTTRNRESVYLLLDMIVQESPFLTMDLLESCFPYVLLRNAYHAVYKQSVTSSA
- binding result (Sra1): binds

B3: Abi2(1-158) (domain or fragment)
chain: MAELQMLLEEEIPGGRRALFDSYTNLERVADYCENNYIQSADKQRALEETKAYTTQSLASVAYLINTLANNVLQMLDIQASQLRRMESSINHISQTVDIHKEKVARREIGILTTNKNTSRTHKIIAPANLERPVRYIRKPIDYTILDDIGHGVKWLLR
- binding result (WAVE1(1-230)): binds

B4: HSPC300 (natural protein)
chain: MAGQEDPVQREIHQDWANREYIEIITSSIKKIADFLNSFDMSCRSRLATLNEKLTALERRIEYIEARVTKGETLT
- binding result (WAVE1(1-230)): binds

B5: WAVE1(1-230)/Abi2(1-158)/HSPC300 trimer (complex)
chain 1: T1 sequence
chain 2: B3 chain
chain 3: B4 chain
- binding result (Sra1/Nap1 dimer): binds
